Test results taken from patent US20140057323A1, “ENHANCED CELLODEXTRIN METABOLISM” (The Board of Trustees of the University of Illinois, priority 2011, published 2014).

Experiments:
[1] = substrate: OC[C@H]1O[C@@H](O[C@H]2[C@H](O)[C@@H](O)C(O)O[C@@H]2CO)[C@H](O)[C@@H](O)[C@@H]1O; test: Kinetic parameters of purified GH1-1 (glucose oxidase/peroxidase assay); format: biochemical, Neurospora crassa; settings: other: GH1-1, glucose production from cellobiose, 50 mM phosphate pH 6.0
Protocol: (§1) The amount of cellobiase activity in cell extracts was determined by the Glucose oxidase/Peroxidase assay. […] The number of pmol of glucose produced per second was calculated by multiplying the rate of increase at 436 nm by 1.17×10^3, a conversion that was established from a glucose standard curve.
(§2) GH1-1 and SdCBP were purified directly from the D452-2 yeast strains described above. 200 mL cultures in DOB-uracil-leucine were grown to an OD (600 nm) of ˜7. Cells were pelleted and washed 1× with 40 mL ddH2O. Cell pellets were resuspended in 25 mL of 50 mM NaH2PO4 [pH 8.0], 300 mM NaCl, 10 mM imidazole, 2 mM DTT, and Roche Complete EDTA-free Protease Inhibitor Cocktail, and lysed by passage through an Avestin EmulsiFlex C-3 homogenizer at 20,000 P.S.I. Cell debris was then pelleted, and proteins purified using Nickel-NTA agarose beads from Qiagen following the protocol for native batch purification provided by Qiagen. Protein eluted from the beads was buffer exchanged into a buffer consisting of phosphate buffered saline (PBS), 10% glycerol, and 2 mM DTT, snap-frozen in (1)N2 and stored at −80° C. Protein concentrations were determined by the absorbance at 280 nm using extinction coefficients of 108750 M^−1 cm^−1 and 178540 M^−1 cm^−1, for GH1-1 and SdCBP, respectively.
(§3) A 1 mL assay included either […] of GH1-1 or […] SdCBP.
(§4) To assay the transglycosylation activity of GH1-1 and SdCBP, both enzymes were enriched from cell extracts by IMAC. […] The kinetic parameters of the enriched proteins were also measured, and the results are depicted in FIG. 12 and quantified in Table 12.

[2] = substrate: OC[C@H]1O[C@@H](O[C@H]2[C@H](O)[C@@H](O)C(O)O[C@@H]2CO)[C@H](O)[C@@H](O)[C@@H]1O; test: cells, lysate or membranes; settings: other: CDT-1 WT, [3H]-cellobiose uptake, pH 5.6
[3] = substrate: OC[C@H]1O[C@@H](O[C@H]2[C@H](O)[C@@H](O)C(O)O[C@@H]2CO)[C@H](O)[C@@H](O)[C@@H]1O; test: Transporter kinetics, [3H]-cellobiose uptake into yeast; format: cell-based, Neurospora crassa; settings: pH 5.6
Protocol: Briefly, the yeast strain D452-2 transformed with mutant transporters was set-up at an OD (600 nm) of −0.2 in 50 mL of DOB-uracil and grown to an OD (600 nm) of ˜1. Cells were then harvested by centrifugation, washed 3× with 10 mLs of transport buffer (30 mM MES-NaOH [pH 5.6], 50 mM EtOH), and resuspended to a final OD (600 nm) of ˜40 in transport buffer. The GFP fluorescence of 100 μL of these cells was determined with excitation/emission wavelengths of 485/535 nm Beckman Coulter Paradigm™ plate reader. […] Reactions were stopped by spinning cells through the oil for 1 minute at 17,000 g, tubes were frozen in ethanol/dry ice, and tube-bottoms containing the cell-pellets were clipped off into 1 mL of 0.5 M NaOH. The pellets were solubilized overnight, 5 mL of Ultima Gold scintillation fluid added, and CPM determined in a Tri-Carb 2900TR scintillation counter.

[4] = substrate: OC[C@H]1O[C@@H](O[C@H]2[C@H](O)[C@@H](O)C(O)O[C@@H]2CO)[C@H](O)[C@@H](O)[C@@H]1O; test: Kinetic parameters of purified SdCBP (glucose oxidase/peroxidase assay); format: biochemical, Saccharophagus degradans; settings: other: SdCBP, glucose production from cellobiose, 50 mM phosphate pH 6.0
Protocol: as §1, §2, §3, §4

B1: Neurospora crassa β-glucosidase GH1-1 (NCU00130) (Neurospora crassa OR74A) (protein)
chain: MSLPKDFLWGFATAAYQIEGAIHADGRGPSIWDTFCNIPGKIADGSSGAVACDSYNRTKEDIDLLKSLGATAYRFSISWSRIIPVGGRNDPINQKGIDHYVKFVDDLLEAGITPFITLFHWDLPDGLDKRYGGLLNREEFPLDFEHYARTMFKAIPKCKHWITFNEPWCSSILGYNSGYFAPGHTSDRTKSPVGDSAREPWIVGHNLLIAHGRAVKVYREDFKPTQGGEIGITLNGDATLPWDPEDPLDVEACDRKIEFAISWFADPIYFGKYPDSMRKQLGDRLPEFTPEEVALVKGSNDFYGMNHYTANYIKHKKGVPPEDDFLGNLETLFYNKKGNCIGPETQSFWLRPHAQGFRDLLNWLSKRYGYPKIYVTENGTSLKGENAMPLKQIVEDDFRVKYFNDYVNAMAKAHSEDGVNVKGYLAWSLMDNFEWAEGYETRFGVTYVDYENDQKRYPKKSAKSLKPLFDSLIKKD
Work on B1 yielded a Km [1] of 320 µM, a kcat [1] of 7 s⁻¹ and a kcat/Km [1] of 21900 M⁻¹ s⁻¹.

B2: Neurospora crassa cellodextrin transporter CDT-1 (NCU00801), wild type, SEQ ID NO: 9, GFP-tagged, in S. cerevisiae D452-2 (Neurospora crassa OR74A) (protein)
chain: MSSHGSHDGASTEKHLATHDIAPTHDAIKIVPKGHGQTATKPGAQEKEVRNAALFAAIKESNIKPWSKESIHLYFAIFVAFCCACANGYDGSLMTGIIAMDKFQNQFHTGDTGPKVSVIFSLYTVGAMVGAPFAAILSDRFGRKKGMFIGGIFIIVGSIIVASSSKLAQFVVGRFVLGLGIAIMTVAAPAYSIEIAPPHWRGRCTGFYNCGWFGGSIPAACITYGCYFIKSNWSWRIPLILQAFTCLIVMSSVFFLPESPRFLFANGRDAEAVAFLVKYHGNGDPNSKLVLLETEEMRDGIRTDGVDKVWWDYRPLFMTHSGRWRMAQVLMISIFGQFSGNGLGYFNTVIFKNIGVTSTSQQLAYNILNSVISAIGALTAVSMTDRMPRRAVLIIGTFMCAAALATNSGLSATLDKQTQRGTQINLNQGMNEQDAKDNAYLHVDSNYAKGALAAYFLFNVIFSFTYTPLQGVIPTEALETTIRGKGLALSGFIVNAMGFINQFAGPIALHNIGYKYIFVFVGWDLIETVAWYFFGVESQGRTLEQLEWVYDQPNPVKASLKVEKVVVQADGHVSEAIVA
Protein B2 has a Km [2] of 7.6 ± 1.5 µM.

B3: Neurospora crassa cellodextrin transporter CDT-1 (SEQ ID NO: 9) variant G91A, GFP-tagged, in S. cerevisiae D452-2 (Neurospora crassa OR74A; G91A) (protein)
chain: MSSHGSHDGASTEKHLATHDIAPTHDAIKIVPKGHGQTATKPGAQEKEVRNAALFAAIKESNIKPWSKESIHLYFAIFVAFCCACANGYDASLMTGIIAMDKFQNQFHTGDTGPKVSVIFSLYTVGAMVGAPFAAILSDRFGRKKGMFIGGIFIIVGSIIVASSSKLAQFVVGRFVLGLGIAIMTVAAPAYSIEIAPPHWRGRCTGFYNCGWFGGSIPAACITYGCYFIKSNWSWRIPLILQAFTCLIVMSSVFFLPESPRFLFANGRDAEAVAFLVKYHGNGDPNSKLVLLETEEMRDGIRTDGVDKVWWDYRPLFMTHSGRWRMAQVLMISIFGQFSGNGLGYFNTVIFKNIGVTSTSQQLAYNILNSVISAIGALTAVSMTDRMPRRAVLIIGTFMCAAALATNSGLSATLDKQTQRGTQINLNQGMNEQDAKDNAYLHVDSNYAKGALAAYFLFNVIFSFTYTPLQGVIPTEALETTIRGKGLALSGFIVNAMGFINQFAGPIALHNIGYKYIFVFVGWDLIETVAWYFFGVESQGRTLEQLEWVYDQPNPVKASLKVEKVVVQADGHVSEAIVA
notes: [3H]-cellobiose uptake
B3 gave a Km ([3]; other: CDT-1 G91A) of 43.5 ± 10.1 µM.

B4: Neurospora crassa cellodextrin transporter CDT-1 (SEQ ID NO: 9) variant F335A, GFP-tagged, in S. cerevisiae D452-2 (Neurospora crassa OR74A; F335A) (protein)
chain: MSSHGSHDGASTEKHLATHDIAPTHDAIKIVPKGHGQTATKPGAQEKEVRNAALFAAIKESNIKPWSKESIHLYFAIFVAFCCACANGYDGSLMTGIIAMDKFQNQFHTGDTGPKVSVIFSLYTVGAMVGAPFAAILSDRFGRKKGMFIGGIFIIVGSIIVASSSKLAQFVVGRFVLGLGIAIMTVAAPAYSIEIAPPHWRGRCTGFYNCGWFGGSIPAACITYGCYFIKSNWSWRIPLILQAFTCLIVMSSVFFLPESPRFLFANGRDAEAVAFLVKYHGNGDPNSKLVLLETEEMRDGIRTDGVDKVWWDYRPLFMTHSGRWRMAQVLMISIAGQFSGNGLGYFNTVIFKNIGVTSTSQQLAYNILNSVISAIGALTAVSMTDRMPRRAVLIIGTFMCAAALATNSGLSATLDKQTQRGTQINLNQGMNEQDAKDNAYLHVDSNYAKGALAAYFLFNVIFSFTYTPLQGVIPTEALETTIRGKGLALSGFIVNAMGFINQFAGPIALHNIGYKYIFVFVGWDLIETVAWYFFGVESQGRTLEQLEWVYDQPNPVKASLKVEKVVVQADGHVSEAIVA
notes: [3H]-cellobiose uptake
Protein B4 has a Km ([3]; other: CDT-1 F335A) of 114.8 ± 46.4 µM.

B5: Neurospora crassa cellodextrin transporter CDT-1 (SEQ ID NO: 9) variant F213L, GFP-tagged, in S. cerevisiae D452-2 (Neurospora crassa OR74A; F213L) (protein)
chain: MSSHGSHDGASTEKHLATHDIAPTHDAIKIVPKGHGQTATKPGAQEKEVRNAALFAAIKESNIKPWSKESIHLYFAIFVAFCCACANGYDGSLMTGIIAMDKFQNQFHTGDTGPKVSVIFSLYTVGAMVGAPFAAILSDRFGRKKGMFIGGIFIIVGSIIVASSSKLAQFVVGRFVLGLGIAIMTVAAPAYSIEIAPPHWRGRCTGFYNCGWLGGSIPAACITYGCYFIKSNWSWRIPLILQAFTCLIVMSSVFFLPESPRFLFANGRDAEAVAFLVKYHGNGDPNSKLVLLETEEMRDGIRTDGVDKVWWDYRPLFMTHSGRWRMAQVLMISIFGQFSGNGLGYFNTVIFKNIGVTSTSQQLAYNILNSVISAIGALTAVSMTDRMPRRAVLIIGTFMCAAALATNSGLSATLDKQTQRGTQINLNQGMNEQDAKDNAYLHVDSNYAKGALAAYFLFNVIFSFTYTPLQGVIPTEALETTIRGKGLALSGFIVNAMGFINQFAGPIALHNIGYKYIFVFVGWDLIETVAWYFFGVESQGRTLEQLEWVYDQPNPVKASLKVEKVVVQADGHVSEAIVA
notes: [3H]-cellobiose uptake
Work on B5 yielded a Km ([3]; other: CDT-1 F213L) of 188.8 ± 55.3 µM.

B6: Saccharophagus degradans cellobiose phosphorylase SdCBP, wild type, SEQ ID NO: 12 (Saccharophagus degradans 2-40) (protein)
chain: MKFGHFDDKAREYVITDPKTPYPWINYLGNEDFFSLVSNTGGGYSFYKDAKFRRLTRYRYNNVPVDNGGKYFYINDSGDVWSPGWKPVKAELDAYSCAHGLSYTRITGERNGIQAEVLSFIPLGTWAEIQKVSLKNTSGATKKFKLFSFAEWCLWNAEDDMTNFQRNFSTGEVEVEDSVIYHKTEFKERRNHYAFYSVNAPIQGFDTDRDKWKGLYNDFDKPDAVFEGEPRNSEAHGWSPIASHYLEVELAPGESKDLIFVLGYIEVAPENKWESKGVINKSPAKELIARFDSVEKVDAELTKLADYWANLLSTYSVESGDEKLDRMVNIWNQYQCMVTFNMSRSASFFESGIGRGMGFRDSNQDLIGFVHQVPERARERIIDIASTQFEDGSAYHQYQPLTKRGNNAIGGNFNDDPLWLILSTTDYIKETGDFSILEEQVPYDNDASKATSHFEHLKRSFYHTVNNLGPHGLPLIGRADWNDCLNLNCFSEDPNESFQTTGNKTGRTAESLMIAGLFVLYGNEFVKLCREIGQDGEAAEAQAHIDQMVEAVKKHGWDGEWFLRAYDYYGKKVGSKENEEGKIFIESQGFCGMAGIGLEDGLVEKSMDSVKEWLDCDYGIVLQQPAFTKYYIEYGEISTYPAGYKENAGIFCHNNPWIMITETLLGRGDKAFEYYRKIAPAYLEEISDLHKVEPYAYCQMIAGKDAYLPGEGKNSWLTGTASWNFAAITQYILGVKPDYSGLAINPCIPSSWDGFKVTRKYRGATYNIIVTNPTHVSKGVKSLTLNGNAIDGYIVPPQQAGTVCNVEVTLG
Work on B6 yielded a Km [4] of 650 µM, a kcat [4] of 7 s⁻¹ and a kcat/Km [4] of 11500 M⁻¹ s⁻¹.
